Target: T1, endogenous rat mitochondrial aldehyde dehydrogenase (ALDH2) of H4-II-E-C3 hepatoma cells, P11884
T1 chain: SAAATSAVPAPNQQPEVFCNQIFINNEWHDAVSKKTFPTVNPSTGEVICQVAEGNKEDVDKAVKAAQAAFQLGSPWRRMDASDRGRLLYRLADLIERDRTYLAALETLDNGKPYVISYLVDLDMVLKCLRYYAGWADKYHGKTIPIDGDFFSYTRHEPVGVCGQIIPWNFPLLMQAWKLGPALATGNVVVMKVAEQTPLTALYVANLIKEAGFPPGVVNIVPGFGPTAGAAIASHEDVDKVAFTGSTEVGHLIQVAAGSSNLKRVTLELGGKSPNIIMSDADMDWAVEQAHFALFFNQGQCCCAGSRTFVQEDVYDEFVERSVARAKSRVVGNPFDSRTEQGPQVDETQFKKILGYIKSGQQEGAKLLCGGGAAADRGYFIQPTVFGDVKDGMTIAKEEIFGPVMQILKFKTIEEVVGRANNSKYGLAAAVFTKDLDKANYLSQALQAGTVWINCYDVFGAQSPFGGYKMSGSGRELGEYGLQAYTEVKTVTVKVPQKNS

B1: human ALDH2-2 (mutant) monomer, expressed from the retroviral vector pLHCK3'UT in rat hepatoma H4-II-E-C3 cells (protein)
chain: SAAATQAVPAPNQQPEVFCNQIFINNEWHDAVSRKTFPTVNPSTGEVICQVAEGDKEDVDKAVKAARAAFQLGSPWRRMDASHRGRLLNRLADLIERDRTYLAALETLDNGKPYVISYLVDLDMVLKCLRYYAGWADKYHGKTIPIDGDFFSYTRHEPVGVCGQIIPWNFPLLMQAWKLGPALATGNVVVMKVAEQTPLTALYVANLIKEAGFPPGVVNIVPGFGPTAGAAIASHEDVDKVAFTGSTEIGRVIQVAAGSSNLKRVTLELGGKSPNIIMSDADMDWAVEQAHFALFFNQGQCCCAGSRTFVQEDIYDEFVERSVARAKSRVVGNPFDSKTEQGPQVDETQFKKILGYINTGKQEGAKLLCGGGIAADRGYFIQPTVFGDVQDGMTIAKEEIFGPVMQILKFKTIEEVVGRANNSTYGLAAAVFTKDLDKANYLSQALQAGTVWVNCYDVFGAQSPFGGYKMSGSGRELGEYGLQAYTKVKTVTVKVPQKNS
Protein B1 has an ALDH2 specific activity of ALDH2-2 transduced H4 clones (lower end of range) (nanomoles/minute/milligram protein) of 15, an ALDH2 specific activity of ALDH2-2 transduced H4 clones (mean ± SEM, N=22) (nanomoles/minute/milligram protein) of 40.4 and an ALDH2 specific activity of ALDH2-2 transduced H4 clones (upper end of range) (nanomoles/minute/milligram protein) of 54. The “reduction in hepatocyte ALDH2 activity” value was “leads to a >60% reduction in hepatocyte ALDH2 activity”.

B2: human ALDH2-1 (wild-type) monomer, expressed from the retroviral vector pLNCE in rat hepatoma H4-II-E-C3 cells (protein)
chain: SAAATQAVPAPNQQPEVFCNQIFINNEWHDAVSRKTFPTVNPSTGEVICQVAEGDKEDVDKAVKAARAAFQLGSPWRRMDASHRGRLLNRLADLIERDRTYLAALETLDNGKPYVISYLVDLDMVLKCLRYYAGWADKYHGKTIPIDGDFFSYTRHEPVGVCGQIIPWNFPLLMQAWKLGPALATGNVVVMKVAEQTPLTALYVANLIKEAGFPPGVVNIVPGFGPTAGAAIASHEDVDKVAFTGSTEIGRVIQVAAGSSNLKRVTLELGGKSPNIIMSDADMDWAVEQAHFALFFNQGQCCCAGSRTFVQEDIYDEFVERSVARAKSRVVGNPFDSKTEQGPQVDETQFKKILGYINTGKQEGAKLLCGGGIAADRGYFIQPTVFGDVQDGMTIAKEEIFGPVMQILKFKTIEEVVGRANNSTYGLAAAVFTKDLDKANYLSQALQAGTVWVNCYDVFGAQSPFGGYKMSGSGRELGEYGLQAYTEVKTVTVKVPQKNS
Work on B2 yielded an ALDH2 specific activity of ALDH2-1 transduced H4 clones (lower end of range) (nanomoles/minute/milligram protein) of 42, an ALDH2 specific activity of ALDH2-1 transduced H4 clones (mean ± SEM, N=15) (nanomoles/minute/milligram protein) of 54.7 and an ALDH2 specific activity of ALDH2-1 transduced H4 clones (upper end of range) (nanomoles/minute/milligram protein) of 78. The “increase of ALDH activity relative to the empty vector control group” value was “ALDH activity was increased by as much as 52% in some ALDH2-1 transduced clones”.

Reference: patent US20030032788
